Measured values: patent US10801027B2, “Inhibitors of SRSF1 to treat neurodegenerative disorders” (University of Sheffield, priority 2016, dated 2020)

Experiments:
[1] = tested on: N2A cells; assay: MTT cell proliferation assay; format: cell-based, mouse; settings: G4C2×38 or C4G2×39 plasmids, 72 h
Procedure: Neuro-2a (N2A) cells were split into each well of a 24 well plate (30,000 cells/well). Each plate contained 4 wells with only media to serve as a blank and 4 wells/treatment. Cells were transfected for 72 hours with either 500 ng pcDNA 3.1, pcDNA 3.1/RAN-G4C2×15 RAN-G4C2×38-sense, RAN-C4G2×15 or RAN-C4G2×39-antisense; or 250 ng pcDNA6.2-GW/EmGFP-Control miR RNAi, pcDNA6.2-GW/EmGFP-mouse SRSF1 miR1+2 RNAi, p3×FLAG/SRSF1 (11-196), or p3×FLAG/SRSF1 (11-196)-m4 and 250 ng pcDNA 3.1, pcDNA 3.1/RAN-G4C2×38-sense or RAN-C4G2×39-antisense.
[…] Thiazolyl Blue Tetrazolum Bromide reagent (MTT) was added to each well and incubated in the dark at […] for 1 hour. Cells were subsequently lysed with equal volume MTT lysis buffer (20% SDS, 50% Dimethylformamide (DMF)) and incubated, shaking, at room temperature for 1 hour. Absorbance at 595 was then assessed with a PHERAstar FS (BMG Labtech). Experiments were performed in triplicate for each treatment. Absorbance data was analysed using PHERAstar MARS (BMG Labtech) and GraphPad Prism (version 6).

[2] = target: T1, NXF1 (Mus musculus, UniProt Q99JX7); assay: Anti-FLAG co-immunoprecipitation of endogenous NXF1 in N2A cells; format: binding; settings: FLAG-tagged protein, 48 h
T1 construct: endogenous in cells; host or cells: Neuro-2a (N2A)
T1 sequence (Q99JX7 1-618): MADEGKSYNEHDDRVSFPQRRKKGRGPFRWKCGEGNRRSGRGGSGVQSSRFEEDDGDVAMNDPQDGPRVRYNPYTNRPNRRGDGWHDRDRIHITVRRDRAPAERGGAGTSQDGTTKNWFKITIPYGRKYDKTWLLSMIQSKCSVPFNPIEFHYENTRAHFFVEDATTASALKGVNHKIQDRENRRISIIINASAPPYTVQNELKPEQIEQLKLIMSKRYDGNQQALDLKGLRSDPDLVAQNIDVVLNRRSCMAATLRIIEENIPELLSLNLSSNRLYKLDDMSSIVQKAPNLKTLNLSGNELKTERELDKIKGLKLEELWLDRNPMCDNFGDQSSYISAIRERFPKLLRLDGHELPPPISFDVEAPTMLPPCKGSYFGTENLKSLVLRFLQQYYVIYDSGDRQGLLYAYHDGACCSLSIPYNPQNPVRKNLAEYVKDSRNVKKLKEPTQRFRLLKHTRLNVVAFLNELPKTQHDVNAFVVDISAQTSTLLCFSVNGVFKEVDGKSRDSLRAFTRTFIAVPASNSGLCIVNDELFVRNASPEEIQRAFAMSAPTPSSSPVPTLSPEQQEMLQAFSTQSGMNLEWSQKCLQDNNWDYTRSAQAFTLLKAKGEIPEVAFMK
Procedure: Cells were split into 1×10 cm plates/treatment (1.5×10^6 cells/plate) and transfected with 15 μg p3×FLAG, p3×FLAG/SRSF1 (11-196), p3×FLAG/SRSF1 (11-196)-m2 or p3×FLAG/SRSF1(11-196)-m4 using 3 μg PEI/1 μg DNA and one tenth medium volume OptiMEM.
Proteins were extracted from Neuro-2a cells 48 hours after transfection. Cells were briefly washed in ice cold PBS, scraped into 500 μl ice cold lysis buffer, passed through a 21G gauge needle 10 times and left to lyse on ice for 10 minutes. Lysed cells were cleared by centrifugation at maximum speed at 4° C. for five minutes and protein extracts were quantified using Bradford Reagent. 2 mg of total protein in 1 ml lysis buffer was incubated with 30 μl anti-FLAG® M2 affinity resin slurry (Sigma A2220) (which had been blocked overnight with 1% BSA in IP lysis buffer) for 2 hours at 4° C. on a rotating wheel. […] 30 μg total protein and 15 μl captured protein complexes were resolved by SDS-PAGE, electroblotted onto nitrocellulose membrane and probed using FLAG, NXF1 clone 53H8 [1:2000] (Abcam ab50609) and […]-tubulin.

[3] = tested on: C4G2×5 repeat RNA; assay: Protein:RNA UV crosslinking assay, antisense probe; format: binding; settings: purified recombinant hexa-histidine-tagged protein
Procedure: Recombinant proteins expressed in 1.51 of E. coli BL21 (DE3)-RP (Novagen) cell cultures were purified by IMAC chromatography on TALON/Cobalt beads (Clontech) in 1M NaCl containing buffers to prevent the potential co-purification of E. coli RNA (Lysis buffer: 50 mM TRIS-HCl pH8.0, 1M NaCl, 0.5% Triton X-100; Wash buffer: 50 mM TRIS-HCl pH8.0, 1M NaCl, 0.5% Triton X-100, 5 mM imidazole). […] Binding reactions were resolved on SDS-PAGE prior to analysis by Coomassie staining and Phosphoimaging.

co-immunoprecipitation of endogenous NXF1 [2]: severely impaired
B1: SRSF1-m4: quadruple SRSF1 point mutant aa11-196, dominant negative, does not interact with TAP/NXF1 (protein)
chain: AGNNDCRIYVGNLPPDIRTKDIEDVFYKYGAIRDIDLKNRRGGPPFAFVEFEDPRDAEDAVYGRDGYDYDGYRLRVEFPASGAGTGRGGGGGGGGGAPRGRYGPPSAASENRVVVSGLPPSGSWQDLKDHMREAGDVCYADVYRDGTGVVEFVRKEDMTYAVRKLDNTKFRSHEGETAYIRVKVDG
modifications: left off: small tags and cut ends
neurotoxicity mediated by expression of the C9ORF72 repeat transcripts [1]: suppress the neurotoxicity | direct interaction with antisense C4G2×5 repeat RNA [3]: retains the ability to directly interact
